Patent publication US20230088269A1

Molecular target: recombinant human IL-22R (R&D Systems / Biotechne 2770-LR) (human) (UniProt Q8N6P7)
Experiment: SPR (Biacore), purified Fab

Sequence of recombinant human IL-22R (R&D Systems / Biotechne 2770-LR) (human) (Q8N6P7 16-228 limits assumed): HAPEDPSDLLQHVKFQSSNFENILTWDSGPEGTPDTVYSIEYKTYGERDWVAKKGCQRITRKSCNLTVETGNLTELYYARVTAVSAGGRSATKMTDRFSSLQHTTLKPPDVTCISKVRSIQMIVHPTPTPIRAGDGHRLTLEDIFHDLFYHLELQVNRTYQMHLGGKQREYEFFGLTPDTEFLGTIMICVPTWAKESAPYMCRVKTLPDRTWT

B1: 170B2 Fab (Fab, from another filing, V domains shown)
VH: EVQLVESGGGLVQPGGSLRLSCAASGFTFSSSWMYWVRQAPGKGLEFVSVINTRSGITHYVESVKGRFTISTDNAKNTLFLQMNSLKSEDTAVYYCATRIQGLIDYWGQGTQVTVSS
VL: DIVMTQSPSSLSVSLGDRVTITCQASQSIGSVNALAWYQQKPGQSLKLLIHGASRLQTGVPSRFSGSGSGTSFTLAISGVEAEDLATYYCLQDYAWPLTFGQGTKVELK
koff: 0.00035 s⁻¹
